Data: article PMC3515450, “Mechanistic and Structural Understanding of Uncompetitive Inhibitors of Caspase-6” (PLoS ONE, 2012)
* marks the point of attachment. AMC = Cc1cc(=O)oc2cc(N*)ccc12; R110 = Rhodamine110 dye

What was measured:
caspase-6 = biological target: T1, caspase-6 (Homo sapiens, UniProt P55212); experiment: Caspase-6 enzymatic assay with fluorogenic tetrapeptide substrates; format: biochemical
T1 construct: Residues 24-179 and 194-293 from caspase-6 cDNA (Origene) were cloned into pET-24b and pET-23b vectors; 6x histidine tag (C); made in house; host or cells: E. coli BL21 (DE3) pLysS
T1 sequence (P55212 24-179): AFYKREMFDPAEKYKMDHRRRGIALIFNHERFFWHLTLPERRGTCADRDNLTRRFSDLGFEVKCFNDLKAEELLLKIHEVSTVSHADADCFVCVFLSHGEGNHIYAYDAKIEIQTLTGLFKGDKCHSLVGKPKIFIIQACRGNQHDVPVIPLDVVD
T1 sequence (P55212 194-293): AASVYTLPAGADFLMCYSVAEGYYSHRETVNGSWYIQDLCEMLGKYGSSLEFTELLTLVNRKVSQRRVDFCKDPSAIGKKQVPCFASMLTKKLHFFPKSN
Method: The in vitro enzymatic caspase assays utilize synthetic tetrapeptide substrates labeled with the fluorophores Rhodamine110 (R110) or 7-amino-4-methylcoumarin (AMC) at the P1 aspartic acid (Asp) residue. All assays were performed in 384-well plates in 12 µL reaction volume consisting of enzyme, substrate and indicated concentration of inhibitor or DMSO in assay buffer (50 mM HEPES [pH 7.0], 25 mM MgSO4, 0.5 mM EGTA, 5 mM Glutathione (GSH), 0.01% Triton X-100 containing 0.1% Bovine Gamma Globulin (BGG)). All inhibitors were serially diluted in 100% DMSO prior to dilution in assay buffer and transfer to assay plate. DMSO was diluted into assay buffer similarly for blank wells (no enzyme or compound) and final DMSO concentration was 1%. The concentration of caspase-6 used in enzymatic reactions typically varied between 1–10 nM depending on substrate used. Unless otherwise indicated, substrate concentration was within 3-fold of the determined Kmapparent (5 µM (Ac-VEID)2R110 [Kmapp = 8 µM]; 5 µM (Ac-DEVD)2R110 [Kmapp = 8 µM]; 25 µM (Ac-IETD)2R110 [Kmapp = 70 µM]; 25 µM (Ac-WEHD)2R110 [Kmapp = 70 µM]; 10µM Ac-VEID-AMC [Kmapp = 16µM]; 5 µM Ac-VEID-R110 [Kmapp = 8 µM]). The concentration of substrate utilized in selectivity assays for each caspase isoform was also held as close to Kmapparent as reasonably achievable (Table S1). Caspases-3 and -7 were expressed and purified at Genentech as the catalytic domain consisting of large p20 and small p10 subunits without prodomain. For all caspase enzymatic assays, the reaction plate was incubated at room temperature for 40 minutes and then read on Envision (Perkin Elmer) fluorescent plate reader at excitation/emission wavelengths of 485/535 nm (R110) or 350/450 nm (AMC). […]
The endpoint fluorescent emission (RFU) in each well was plotted as a function of inhibitor concentration and the 50% inhibition (IC50) values were determined using a nonlinear least squares fit of the data to a four parameter equation using Prism 5.0 software (GraphPad Software, San Diego, CA). […] Ki values for Compound 3 were calculated using this equation: Ki = IC50/(Km/[S] +1). Concentration-response curves for each inhibitor were normalized to zero and 100% based on no enzyme or DMSO control, respectively. For steady-state kinetic analysis, initial reaction velocity (RFU/minute) was plotted against substrate concentration at each inhibitor concentration and the data was fit to a hyperbolic Michaelis-Menten model using Prism 5.0 software. Km (µM) and Vmax (RFU/minute) were calculated by using this equation: v = Vmax • [S]/Km+[S] where v = initial reaction velocity at indicated substrate concentration (S). Vmax values were normalized to zero and 100% based on no enzyme or DMSO control, respectively.
Expression and purification of caspase-6 for enzymatic assays: Human caspase-6 was expressed as the mature enzyme using a split construct. Residues 24-179 and 194-293 from caspase-6 cDNA (Origene) were cloned into pET-24b and pET-23b vectors (Novagen) respectively; the small subunit contained a C-terminal 6x histidine tag. Vectors were cotransfected into the E.coli strain BL21 (DE3) pLysS (Stratagene). Cells were grown from a single colony in 6L of 2xYT supplemented with ampicillin and kanamycin at 37 °C to an OD of ~ 0.5 and were subsequently cooled to 16 °C before overnight induction with 0.2 mM IPTG. Cells were harvested by centrifugation, resuspended in 100 mM NaCl, 100 mM Tris, pH 8.0, and lysed.

(Ac-VEID)2R110 = tested on: T2, (Ac-VEID)2R110; experiment: SPR; as a2, but substrates (10 µM) mixed with compound 3 (1 µM) and injected together over the captured caspase-6 surfaces; apparent
T2 sequence: VEID

caspase-3 = biological target: T3, caspase-3 (Homo sapiens, UniProt P42574); experiment: Caspase-3 enzymatic assay with divalent R110 substrates; format: biochemical; settings: caspase-3
T3 construct: as the catalytic domain consisting of large p20 and small p10 subunits without prodomain; made in house
T3 sequence (P42574 29-175 limits assumed): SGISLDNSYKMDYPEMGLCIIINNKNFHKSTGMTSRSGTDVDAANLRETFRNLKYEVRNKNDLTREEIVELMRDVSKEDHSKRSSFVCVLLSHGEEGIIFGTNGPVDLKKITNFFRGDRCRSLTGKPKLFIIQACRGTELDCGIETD
T3 sequence (P42574 176-277 limits assumed): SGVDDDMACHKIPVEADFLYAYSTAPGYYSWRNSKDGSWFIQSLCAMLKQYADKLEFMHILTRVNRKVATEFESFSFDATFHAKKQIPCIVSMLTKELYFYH
Method: The in vitro enzymatic caspase assays utilize synthetic tetrapeptide substrates labeled with the fluorophores Rhodamine110 (R110) or 7-amino-4-methylcoumarin (AMC) at the P1 aspartic acid (Asp) residue. All assays were performed in 384-well plates in 12 µL reaction volume consisting of enzyme, substrate and indicated concentration of inhibitor or DMSO in assay buffer (50 mM HEPES [pH 7.0], 25 mM MgSO4, 0.5 mM EGTA, 5 mM Glutathione (GSH), 0.01% Triton X-100 containing 0.1% Bovine Gamma Globulin (BGG)). All inhibitors were serially diluted in 100% DMSO prior to dilution in assay buffer and transfer to assay plate. DMSO was diluted into assay buffer similarly for blank wells (no enzyme or compound) and final DMSO concentration was 1%. The concentration of caspase-6 used in enzymatic reactions typically varied between 1–10 nM depending on substrate used. Unless otherwise indicated, substrate concentration was within 3-fold of the determined Kmapparent (5 µM (Ac-VEID)2R110 [Kmapp = 8 µM]; 5 µM (Ac-DEVD)2R110 [Kmapp = 8 µM]; 25 µM (Ac-IETD)2R110 [Kmapp = 70 µM]; 25 µM (Ac-WEHD)2R110 [Kmapp = 70 µM]; 10µM Ac-VEID-AMC [Kmapp = 16µM]; 5 µM Ac-VEID-R110 [Kmapp = 8 µM]). The concentration of substrate utilized in selectivity assays for each caspase isoform was also held as close to Kmapparent as reasonably achievable (Table S1). Caspases-3 and -7 were expressed and purified at Genentech as the catalytic domain consisting of large p20 and small p10 subunits without prodomain. For all caspase enzymatic assays, the reaction plate was incubated at room temperature for 40 minutes and then read on Envision (Perkin Elmer) fluorescent plate reader at excitation/emission wavelengths of 485/535 nm (R110) or 350/450 nm (AMC).
The endpoint fluorescent emission (RFU) in each well was plotted as a function of inhibitor concentration and the 50% inhibition (IC50) values were determined using a nonlinear least squares fit of the data to a four parameter equation using Prism 5.0 software (GraphPad Software, San Diego, CA). […]

Molecule | apparent KD with compound 3 (dissociation of both compound and substrate) ((Ac-VEID)2R110) | Kmapp of substrate (caspase-6; caspase-6) [µM] | further results
COc1ccc(-c2cc(C(=O)NC(Cc3ccccc3)C(=O)O)c(C)o2)cc1OC (centres unmarked) [Compound 2] |  |  | binding efficiency index (BEI; pIC50/molecular weight) (caspase-6; caspase-6, (VEID)2R110): 11.5; IC50 (caspase-6; caspase-6 cleavage of (VEID)2R110 substrate, read-out: IC50): 20 µM
apo-caspase-6 with C-terminal avi-tag, biotinylated | an apparent KD of ∼200 nM |  | 
mature C163A-caspase-6 with C-terminal avi-tag | an apparent KD of ∼200 nM |  | 
Ac-VEID-AMC: monovalent VEID substrate in which R110 is replaced by amino-methyl coumarin (Ac-VEID-{AMC}; SMILES CC[C@H](C)[C@H](NC(=O)[C@H](CCC(=O)O)NC(=O)[C@@H](NC(C)=O)C(C)C)C(=O)N[C@@H](CC(=O)O)C(=O)Nc1ccc2c(C)cc(=O)oc2c1) [reference compound] |  | 16 | 
(VEID)2R110: Rhodamine110 dye conjugated to two valine-glutamate-isoleucine-aspartate tetrapeptides; fluorogenic substrate (Ac-VEID-R110; also: two VEID chains on one R110 dye) [reference compound] |  | 8 | Kcat of substrate (caspase-6; caspase-6, kcat = Vmax/[E]): 0.11 s⁻¹; Kmapp of substrate (caspase-3): 8 µM
